Measured values published in US20260200999A1, “SYNTHETIC TRANSCRIPTION FACTORS” (ETH ZURICH, priority 2022, published 2026).

Experiments:
[1] = test system: Response Element-driven mCerulean reporter (MTERF1 binding sites, SEQ ID NO: 42); assay: mCerulean reporter co-transfection with HumTAP constructs in HEK293 cells (flow cytometry); assay type: cell-based, human; conditions: HEK293; for reporter (mCerulean) expression: TAD fused to MTERF158-399, pEF1a-driven, Example 4, FIG. 9B, C
From the text: To construct a promoter with Response Elements/MTERF1 binding sites driving the gene of interest, the inventors placed MTERF1 binding sites (SEQ ID NO: 42) upstream a minimal TATA box (SEQ ID NO: 103). An mCerulean fluorescent reporter representing the gene of interest (Gol) was placed downstream of the TATA box. Each of these is referred to as a reporter construct. Five different reporter constructs were made comprising respectively 3, 5, 7, 9, and 11 MTERF1 binding sites 6 base pairs apart upstream of the TATA box (FIG. 1A; SEQ ID NO: 41, 44, 45, 46 and 47, respectively). They were co-transfected with the MTF construct into Hela cells. […] Using flow cytometry, relative mCerulean levels were measured and calculated by normalization to the transfection control in Hela cells (FIG. 1C). […] Next, reporter plasmids with varying spacer lengths (0, 6 bp and 10 bp; SEQ ID NO: 48, 44 and 49, respectively) (FIG. 1F) between a fixed number of REs (i.e. 5 REs/MTERF1 binding sites) were transfected with the MTF construct. […] This was confirmed using flow cytometry (FIG. 1H). […]
With the goal to engineer stronger and possibly shorter HumTAPs, the inventors fused the MTERF158-399 peptide (SEQ ID NO: 1) to a variety of transactivation domains and transfected HEK293 cells with those constructs and the reporter construct comprising 5×RE/MTERF1 binding sites without a spacer between them (SEQ ID NO: 48).
First, MTERF158-399 (SEQ ID NO: 1) was fused with different subsequences of RelA. RelA361-551 (SEQ ID NO: 27) corresponds to the sequence used in the construction of the bacterial-derived synthetic TF PIT2 [19], while RelA342-551 (SEQ ID NO: 29) contains all annotated transactivation domains according to domain annotation under Uniprot Q04206 (https://www.uniprot.org/uniprotkb/Q04206/entry). […] We also fused MTERF158-399 (SEQ ID NO: 1) to a set of transactivation domains previously found to be strong activators with a small genetic footprint (FIG. 4B).
To further decrease the DNA footprint of a HumTAP, the inventors investigated to what degree the DNA binding domain may be reduced. To this end, the inventors created 3 versions of MTERF1 subsequences fused to RelA430-551 (SEQ ID NO: 3). MTERF173-399 (SEQ ID NO: 7), MTERF1104-399 (SEQ ID NO: 9), and MTERF1135-399 (SEQ ID NO: 11) are subunits of MTERF1 without its mitochondrial transfer peptide (MTERF11-57; SEQ ID NO: 37) that either lack only the first […] N-terminal amino acids (MTERF58-72; SEQ ID NO: 39) or additionally, also lack the first (MTERF173-98; SEQ ID NO: 104) or both the first and second (MTERF1104-134; SEQ ID NO: 106) mterf motifs (FIG. 5A). The removal of N-terminal domains reduces the genetic footprint of a HumTAP (FIG. 5B). These constructs were co-transfected into HEK293 cells with the reporter construct containing 5×RE without a spacer in its promoter (SEQ ID NO: 48).
In addition to RelA430-551 (termed “v1”), the inventors tested three alternative subsequences: v2) RelA342-551 (SEQ ID NO: 29), which contains all transactivation domains as annotated on UniProt Q04206; v3) RelA361-551 (SEQ ID NO: 27), which is identical to the peptide used in the construction of PIT2 [2]; and v4) RelA521-551 (SEQ ID NO: 31), which constitutes only the transactivation domain 1 (TA1). The protein domains WW (SEQ ID NO: 21), KRAB of ZNF473 (SEQ ID NO: 23), Nuc-rec-co-Act (SEQ ID NO: 25), LMSTEN (SEQ ID NO: 19), and FoxoTAD (SEQ ID NO: 17) were recently identified as strong transactivators. To assess their functionality in the HumTAP context, the inventors created fusion proteins between each of them and MTERF158-399 (SEQ ID NO: 1) (FIG. 9A).
Upon co-transfection of HEK293 cells with plasmids encoding pEF1a-driven expression of the fusion HumTAPs, a Response Element-driven mCerulean reporter protein, and a mCherry transfection control, all peptides derived from RelA except TA1 mediated high levels of reporter gene expression. […]

[2] = target: T1, FKBP (SEQ ID NO: 142) and FRBT2098L (SEQ ID NO: 140) heterodimerization (Homo sapiens, UniProt P42345+P62942+Q04206, T2098L); assay: A/C heterodimerizer-inducible HumTAP gene expression system in HEK293 cells; assay type: cell-based; conditions: HEK293; constant A/C heterodimerizer concentration of 100 nM; FIG. 10B
T1 construct: expressed in transfected cells; host or cells: HEK293
T1 sequence (P62942 with tags, fused parts or gaps, stated change not applied, one chain of several): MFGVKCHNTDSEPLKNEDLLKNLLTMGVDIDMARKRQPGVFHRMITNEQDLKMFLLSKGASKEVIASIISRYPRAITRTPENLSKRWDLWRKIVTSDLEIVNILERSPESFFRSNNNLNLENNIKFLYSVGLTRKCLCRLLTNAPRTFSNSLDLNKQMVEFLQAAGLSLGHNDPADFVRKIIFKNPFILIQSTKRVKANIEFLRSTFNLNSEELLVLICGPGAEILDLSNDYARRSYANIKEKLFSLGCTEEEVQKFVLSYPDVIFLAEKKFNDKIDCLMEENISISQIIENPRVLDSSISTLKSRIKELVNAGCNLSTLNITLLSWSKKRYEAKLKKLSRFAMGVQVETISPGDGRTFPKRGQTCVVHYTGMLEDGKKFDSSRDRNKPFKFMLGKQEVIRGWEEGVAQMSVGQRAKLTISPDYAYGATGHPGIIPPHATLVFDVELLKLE
From the text: One well-characterized small-molecule based dimerization system is based on the rapamycin analog A/C (C16-(S)-7-methylindolerapamycin) that induces heterodimerization between the human proteins FK506-binding protein 12 (FKBP; SEQ ID NO: 142) and the FKBP12-rapamycin binding domain (FRB) mutant FRBT2098L (SEQ ID NO: 140), [31]. To achieve A/C heterodimerizer-inducible gene expression, the inventors fused FKBP (SEQ ID NO: 142) to the N-terminus of MTERF158-399 (SEQ ID NO: 1) and FRB (SEQ ID NO: 140) to the C-terminus of different transactivation domains (FIG. 10A). […] In accordance with the results described above, chimeric transactivation domains mediated higher maximal output expression levels than RelA430-551.
The inventors reasoned that in the present system, dimerization might be hindered by either FRB's or FKBP's fusion partner and investigated whether the addition of linkers between the protein domains might impact the EC50 value (FIG. 10 D). A combination of the cMyc nuclear localization signal (NLS) (SEQ ID NO: 122) linking MTERF158-399 and FKBP, and the rigid linker AP6 (SEQ ID NO: 120) linking FRB and RelA430-551 led to a reduction in EC50 to ~60 nM while also increasing maximal output ~3-fold over the variant without linkers and RelA430-551 as TAD (FIG. 10 D).

B1: MTERF1104-399 with FoxoTAD: FoxoTAD: MTERF1104-399 (SEQ ID NO: 9) fused to FoxoTAD: FoxoTAD (SEQ ID NO: 33) (protein, listed as Homo sapiens)
chain: EQDLKMFLLSKGASKEVIASIISRYPRAITRTPENLSKRWDLWRKIVTSDLEIVNILERSPESFFRSNNNLNLENNIKFLYSVGLTRKCLCRLLTNAPRTFSNSLDLNKQMVEFLQAAGLSLGHNDPADFVRKIIFKNPFILIQSTKRVKANIEFLRSTFNLNSEELLVLICGPGAEILDLSNDYARRSYANIKEKLFSLGCTEEEVQKFVLSYPDVIFLAEKKFNDKIDCLMEENISISQIIENPRVLDSSISTLKSRIKELVNAGCNLSTLNITLLSWSKKRYEAKLKKLSRFAHEKFPSDLDLDMFNGSLECDMESIIRSELMDADGLDFNFDSHEKFPSDLDLDMFNGSLECDMESIIRSELMDADGLDFNFDS
[1]; chimeric TAD fused to MTERF1104-399, FIG. 9F
  strength / reporter gene expression, fold over MTF: ~ 1.5 fold

B2: SEQ ID NO: 196: MTERF158-399 fused to two copies of the LMSTEN domain (protein)
chain: EAQNVSSHVPYPVALHVNIVNVPQPAAAAIQRHYNDEDPEKEKRIKELELLLMSTENELKGQQVLPTQNHTCSYPGWHSTEAQNVSSHVPYPVALHVNIVNVPQPAAAAIQRHYNDEDPEKEKRIKELELLLMSTENELKGQQVLPTQNHTCSYPGWHST
[1]; two copies of TAD fused to MTERF158-399, Example 4, FIG. 9C
  mCerulean/reporter expression, fold more than one copy of the TAD: ~ 2.7 fold

B3: SEQ ID NO: 54: MTERF158-399 fused to FoxoTAD with LMSTEN (protein)
chain: HEKFPSDLDLDMFNGSLECDMESIIRSELMDADGLDFNFDSEAQNVSSHVPYPVALHVNIVNVPQPAAAAIQRHYNDEDPEKEKRIKELELLLMSTENELKGQQVLPTQNHTCSYPGWHST
[1]
  reporter (mCerulean) expression: smaller and stronger than the benchmark

B4: SEQ ID NO: 56: MTERF158-399 fused to LMSTEN with TA1 (protein)
chain: EAQNVSSHVPYPVALHVNIVNVPQPAAAAIQRHYNDEDPEKEKRIKELELLLMSTENELKGQQVLPTQNHTCSYPGWHSTPGLPNGLLSGDEDFSSIADMDFSALLSQISS
[1]
  reporter (mCerulean) expression: smaller and stronger than the benchmark

B5: SEQ ID NO: 52: MTERF158-399 fused to chimeric TAD consisting of FoxoTAD, LMSTEN, and TA1 (protein)
chain: HEKFPSDLDLDMFNGSLECDMESIIRSELMDADGLDFNFDSEAQNVSSHVPYPVALHVNIVNVPQPAAAAIQRHYNDEDPEKEKRIKELELLLMSTENELKGQQVLPTQNHTCSYPGWHSTPGLPNGLLSGDEDFSSIADMDFSALLSQISS
[1]; fused to MTERF158-399, FIG. 9C
  reporter gene expression relative to RelA430-551: 3.7 times

B6: SEQ ID NO: 194: MTERF158-399 fused to three TA1 domains (protein)
chain: PGLPNGLLSGDEDFSSIADMDFSALLSQISSPGLPNGLLSGDEDFSSIADMDFSALLSQISSPGLPNGLLSGDEDFSSIADMDFSALLSQISS
[1]
  reporter (mCerulean) expression: further increased output expression

B7: FRB::RelA430-551: FRBT2098L fused to RelA430-551 (protein)
chain: MVAILWHEMWHEGLEEASRLYFGERNVKGMFEVLEPLHAMMERGPQTLKETSFNQAYGRDLMEAQEWCRKYMKSGNVKDLLQAWDLYYHVFRRISQAGEGTLSEALLQLQFDDEDLGALLGNSTDPAVFTDLASVDNSEFQQLLNQGIPVAPHTTEPMLMEYPEAITRLVTGAQRPPDPAPAPLGAPGLPNGLLSGDEDFSSIADMDFSALLSQISS
[2]
  molar excess over the MTERF158-399: FKBP plasmid giving the highest mCerulean levels: 4 fold

B8: SEQ ID NO: 58: MTERF158-399 fused to FoxoTAD with TA1 (protein)
chain: HEKFPSDLDLDMFNGSLECDMESIIRSELMDADGLDFNFDSPGLPNGLLSGDEDFSSIADMDFSALLSQISS
[1]
  reporter (mCerulean) expression: smaller and stronger than the benchmark
